Test results: patent publication US20230340128A1 (Xencor, published 2023)

What was measured:
human mesothelin (MSLN) [1] = biological target: T1, human mesothelin (MSLN) (human, UniProt Q13421 296-580, limits assumed); assay: BLI (Octet), bsAb in 1+1 Fab-scFv-Fc format
T1 construct: Antigen of the Octet KD values

human mesothelin (MSLN) [2] = biological target: T1, human mesothelin (MSLN); assay: KD quoted in the FIG. 25 legend; Octet (BLI) per FIGS. 20-21
human mesothelin (MSLN) [3] = biological target: T1, human mesothelin (MSLN); assay: label in the legend box: nominal affinity of the MSLN binding domain (paragraph 422 calls such label values KD); method not stated on the sheet
human CD28 = biological target: T2, human CD28 (human, UniProt P10747 19-152, limits assumed); assay: label in the legend box: nominal affinity of the CD28 binding domain (paragraph 422 calls such label values KD); method not stated on the sheet
T2 construct: also called Cluster of Differentiation 28; Tp44

| Binder | Kd (human mesothelin (MSLN) [2]) [nM] | Kd (human mesothelin (MSLN) [3]) [nM] | Kd (human CD28) [nM] | also measured |
| --- | --- | --- | --- | --- |
| XENP32563 (bispecific antibody) chain 1: QVQLVQSGAEVKKPGASVKVSCKASGYTFTSYWMHWVRQAPGQGLEWMGMIHPNSDNTIYYEKFQGRVTMTVDKSISTAYMELSRLRSDDTAVYYCAIIITPVVPKFDYWGQGTLVTVSSASTKGPSVFPLAPSSKSTSGGTAALGCLVKDYFPEPVTVSWNSGALTSGVHTFPAVLQSSGLYSLSSVVTVPSSSLGTQTYICNVNHKPSDTKVDKKVEPKSCDKTHTCPPCPAPPVAGPSVFLFPPKPKDTLMISRTPEVTCVVVDVKHEDPEVKFNWYVDGVEVHNAKTKPREEEYNSTYRVVSVLTVLHQDWLNGKEYKCKVSNKALPAPIEKTISKAKGQPREPQVYTLPPSREEMTKNQVSLTCDVSGFYPSDIAVEWESDGQPENNYKTTPPVLDSDGSFFLYSKLTVDKSRWEQGDVFSCSVMHEALHNHYTQKSLSLSPGK chain 2: not shown chain 3: DIVMTQSPDSLAVSLGERATINCKASHDVGTYVAWYQQKPGQSPKLLIYWASTRHTGVPDRFTGSGSGTDFTLTISSLQAEDVAVYFCQQYSSYPLTFGAGTKLEIKRTVAAPSVFIFPPSDEQLKSGTASVVCLLNNFYPREAKVQWKVDNALQSGNSQESVTEQDSKDSTYSLSSTLTLSKADYEKHKVYACEVTHQGLSSPVTKSFNRGEC | ~12.8 |  |  | Kd (human mesothelin (MSLN) [1]): 12.8 nM; Response (human mesothelin (MSLN) [1]): 0.898; koff (human mesothelin (MSLN) [1]): 0.00672 s⁻¹; kon (human mesothelin (MSLN) [1]): 527000 M⁻¹ s⁻¹ |
| XENP44471 (bispecific antibody, also called XENP44471 MSLN (9 nM) x CD28 (180 nM) 2+1 Fab2-scFv-Fc) heavy 1: QVQLVQSGAEVKKPGASVKVSCKASGYTFTSYWMHWVRQAPGQGLEWMGWIHPNSDNTIYYEKFQGRVTMTVDKSISTAYMELSRLRSDDTAVYYCAIIITPVVPKFDYWGQGTLVTVSSASTKGPSVFPLAPSSKSTSGGTAALGCLVKDYFPEPVTVSWNSGALTSGVHTFPAVLQSSGLYSLSSVVTVPSSSLGTQTYICNVNHKPSDTKVDKKVEPKSCDKTHTCPPCPAPPVAGPSVFLFPPKPKDTLMISRTPEVTCVVVDVKHEDPEVKFNWYVDGVEVHNAKTKPREEEYNSTYRVVSVLTVLHQDWLNGKEYKCKVSNKALPAPIEKTISKAKGQPREPQVYTLPPSREEMTKNQVSLTCDVSGFYPSDIAVEWESDGQPENNYKTTPPVLDSDGSFFLYSKLTVDKSRWEQGDVFSCSVLHEALHSHYTQKSLSLSPGK heavy 2: not shown light 1: DIVMTQSPDSLAVSLGERATINCKASHDVGTSVAWYQQKPGQSPKLLIYWASTRHTGVPDRFTGSGSGTDFTLTISSLQAEDVAVYFCQQYSSYPLTFGAGTKLEIKRTVAAPSVFIFPPSDEQLKSGTASVVCLLNNFYPREAKVQWKVDNALQSGNSQESVTEQDSKDSTYSLSSTLTLSKADYEKHKVYACEVTHQGLSSPVTKSFNRGEC light 2: DIVMTQSPDSLAVSLGERATINCKASHDVGTSVAWYQQKPGQSPKLLIYWASTRHTGVPDRFTGSGSGTDFTLTISSLQAEDVAVYFCQQYSSYPLTFGAGTKLEIKRTVAAPSVFIFPPSDEQLKSGTASVVCLLNNFYPREAKVQWKVDNALQSGNSQESVTEQDSKDSTYSLSSTLTLSKADYEKHKVYACEVTHQGLSSPVTKSFNRGEC |  | 9 | 180 |  |
| XENP32948 (bispecific antibody) chain 1: QVQLVQSGAEVKKPGASVKVSCKASGYTFTSYWMHWVRQAPGQGLEWMGMIHPNSDNTIYYQKFQGRVTMTVDKSISTAYMELSRLRSDDTAVYYCAIIITPVVPKFDYWGQGTLVTVSSASTKGPSVFPLAPSSKSTSGGTAALGCLVKDYFPEPVTVSWNSGALTSGVHTFPAVLQSSGLYSLSSVVTVPSSSLGTQTYICNVNHKPSDTKVDKKVEPKSCDKTHTCPPCPAPPVAGPSVFLFPPKPKDTLMISRTPEVTCVVVDVKHEDPEVKFNWYVDGVEVHNAKTKPREEEYNSTYRVVSVLTVLHQDWLNGKEYKCKVSNKALPAPIEKTISKAKGQPREPQVYTLPPSREEMTKNQVSLTCDVSGFYPSDIAVEWESDGQPENNYKTTPPVLDSDGSFFLYSKLTVDKSRWEQGDVFSCSVMHEALHNHYTQKSLSLSPGK chain 2: QVQLVQSGAEVKKPGASVKVSCKASGYTFTSYWMHWVRQAPGQGLEWMGMIHPNSDNTIYYQKFQGRVTMTVDKSISTAYMELSRLRSDDTAVYYCAIIITPVVPKFDYWGQGTLVTVSSASTKGPSVFPLAPSSKSTSGGTAALGCLVKDYFPEPVTVSWNSGALTSGVHTFPAVLQSSGLYSLSSVVTVPSSSLGTQTYICNVNHKPSNTKVDKKVEPKSCGGGGSGGGGSQAVVTQEPSLTVSPGGTVTLTCGSSTGAVTTSNYANWVQQKPGKSPRGLIGGTNKRAPGVPARFSGSLLGGKAALTISGAQPEDEADYYCALWYSNHWVFGGGTKLTVLGKPGSGKPGSGKPGSGKPGSEVQLVESGGGLVQPGGSLRLSCAASGFTFSTYAMNWVRQAPGKGLEWVGRIRSKANNYATYYADSVKGRFTISRDDSKNTLYLQMNSLRAEDTAVYYCVRHGNFGDSYVSWFAYWGQGTLVTVSSGGGGSGGGGSKTHTCPPCPAPPVAGPSVFLFPPKPKDTLMISRTPEVTCVVVDVKHEDPEVKFNWYVDGVEVHNAKTKPREEQYNSTYRVVSVLTVLHQDWLNGKEYKCKVSNKALPAPIEKTISKAKGQPREPQVYTLPPSREQMTKNQVKLTCLVKGFYPSDIAVEWESNGQPENNYKTTPPVLDSDGSFFLYSKLTVDKSRWQQGNVFSCSVMHEALHNHYTQKSLSLSPGK chain 3: DIVMTQSPDSLAVSLGERATINCKASHDVGTSVAWYQQKPGQSPKLLIYWASTRHTGVPDRFTGSGSGTDFTLTISSLQAEDVAVYFCQQYYSYPLTFGAGTKLEIKRTVAAPSVFIFPPSDEQLKSGTASVVCLLNNFYPREAKVQWKVDNALQSGNSQESVTEQDSKDSTYSLSSTLTLSKADYEKHKVYACEVTHQGLSSPVTKSFNRGEC | 10.2 |  |  |  |

Continued, in another order:

| Kd (human mesothelin (MSLN) [2]) [nM] | Kd (human mesothelin (MSLN) [3]) [nM] | Kd (human CD28) [nM] | Binder | also measured |
| --- | --- | --- | --- | --- |
|  | 9 | 180 | XENP44477 (bispecific antibody, also called XENP44477 MSLN (9 nM) x CD28 (180 nM) 2+1 Fab2-Fc x scFv-Fc) heavy: QVQLVQSGAEVKKPGASVKVSCKASGYTFTSYWMHWVRQAPGQGLEWMGWIHPNSDNTIYYEKFQGRVTMTVDKSISTAYMELSRLRSDDTAVYYCAIIITPVVPKFDYWGQGTLVTVSSASTKGPSVFPLAPSSKSTSGGTAALGCLVKDYFPEPVTVSWNSGALTSGVHTFPAVLQSSGLYSLSSVVTVPSSSLGTQTYICNVNHKPSDTKVDKKVEPKSCGGGGSGGGGSQVQLVQSGAEVKKPGASVKVSCKASGYTFTSYWMHWVRQAPGQGLEWMGWIHPNSDNTIYYEKFQGRVTMTVDKSISTAYMELSRLRSDDTAVYYCAIIITPVVPKFDYWGQGTLVTVSSASTKGPSVFPLAPSSKSTSGGTAALGCLVKDYFPEPVTVSWNSGALTSGVHTFPAVLQSSGLYSLSSVVTVPSSSLGTQTYICNVNHKPSDTKVDKKVEPKSCDKTHTCPPCPAPPVAGPSVFLFPPKPKDTLMISRTPEVTCVVVDVKHEDPEVKFNWYVDGVEVHNAKTKPREEEYNSTYRVVSVLTVLHQDWLNGKEYKCKVSNKALPAPIEKTISKAKGQPREPQVYTLPPSREEMTKNQVSLTCDVSGFYPSDIAVEWESDGQPENNYKTTPPVLDSDGSFFLYSKLTVDKSRWEQGDVFSCSVLHEALHSHYTQKSLSLSPGK scFv-Fc: not shown light 1: DIVMTQSPDSLAVSLGERATINCKASHDVGTSVAWYQQKPGQSPKLLIYWASTRHTGVPDRFTGSGSGTDFTLTISSLQAEDVAVYFCQQYSSYPLTFGAGTKLEIKRTVAAPSVFIFPPSDEQLKSGTASVVCLLNNFYPREAKVQWKVDNALQSGNSQESVTEQDSKDSTYSLSSTLTLSKADYEKHKVYACEVTHQGLSSPVTKSFNRGEC light 2: DIVMTQSPDSLAVSLGERATINCKASHDVGTSVAWYQQKPGQSPKLLIYWASTRHTGVPDRFTGSGSGTDFTLTISSLQAEDVAVYFCQQYSSYPLTFGAGTKLEIKRTVAAPSVFIFPPSDEQLKSGTASVVCLLNNFYPREAKVQWKVDNALQSGNSQESVTEQDSKDSTYSLSSTLTLSKADYEKHKVYACEVTHQGLSSPVTKSFNRGEC |  |
|  | 90 | 180 | XENP44473 (bispecific antibody, also called XENP44473 MSLN (90 nM) x CD28 (180 nM) 2+1 Fab2-scFv-Fc) heavy 1: QVQLVQSGAEVKKPGASVKVSCKASGYTFTSYWMHWVRQAPGQGLEWMGWIHPNSDNTIYYEKFQGRVTMTVDKSISTAYMELSRLRSDDTAVYYCAIIITPVVPKFDYWGQGTLVTVSSASTKGPSVFPLAPSSKSTSGGTAALGCLVKDYFPEPVTVSWNSGALTSGVHTFPAVLQSSGLYSLSSVVTVPSSSLGTQTYICNVNHKPSDTKVDKKVEPKSCDKTHTCPPCPAPPVAGPSVFLFPPKPKDTLMISRTPEVTCVVVDVKHEDPEVKFNWYVDGVEVHNAKTKPREEEYNSTYRVVSVLTVLHQDWLNGKEYKCKVSNKALPAPIEKTISKAKGQPREPQVYTLPPSREEMTKNQVSLTCDVSGFYPSDIAVEWESDGQPENNYKTTPPVLDSDGSFFLYSKLTVDKSRWEQGDVFSCSVLHEALHSHYTQKSLSLSPGK heavy 2: not shown light 1: DIVMTQSPDSLAVSLGERATINCKASHDVGQSVAWYQQKPGQSPKLLIYWASTRHTGVPDRFTGSGSGTDFTLTISSLQAEDVAVYFCQQYSSYPLTFGAGTKLEIKRTVAAPSVFIFPPSDEQLKSGTASVVCLLNNFYPREAKVQWKVDNALQSGNSQESVTEQDSKDSTYSLSSTLTLSKADYEKHKVYACEVTHQGLSSPVTKSFNRGEC light 2: DIVMTQSPDSLAVSLGERATINCKASHDVGQSVAWYQQKPGQSPKLLIYWASTRHTGVPDRFTGSGSGTDFTLTISSLQAEDVAVYFCQQYSSYPLTFGAGTKLEIKRTVAAPSVFIFPPSDEQLKSGTASVVCLLNNFYPREAKVQWKVDNALQSGNSQESVTEQDSKDSTYSLSSTLTLSKADYEKHKVYACEVTHQGLSSPVTKSFNRGEC |  |
